According to patent US12427188B2, “Pyocyanine demethylases and related phenazine degrading agents compositions, methods and systems for interfering with viability of bacteria” (priority 2020, dated 2025):
Entries after “also recorded” stand apart in the source; their conditions may differ.

Legend:
[1] = Continuous spectrophotometric PYO demethylation assay (specific activity and kinetics of PodA); assay type: biochemical; conditions: for Activity over range of pH: PodA10 3 μM
Description: Specific activity and kinetics of PodA. To determine specific activity and kinetic parameters of PodA for PYO, a continuous spectrophotometric assay monitoring the absorbance of PYO (690 nm) was utilized. Briefly, assays were performed at 25° C. in 100 μL reaction volumes in 96-well plates and reactions were monitored at 690 nm over 10 min. Reaction mixtures contained Phosphate buffer (50 mM, pH 6.0), ethylene glycol (1%, v/v), protein (3 μM) and substrate (for specific activity, 100 μM, for kinetics, varying). Data were acquired using the SpectraMax® M3 Microplate Reader (Molecular Devices) using the Soft Max Pro software every 10 s over 10 min. Path lengths for each well were calculated using Soft Max Pro endpoint readings and slopes were corrected for path lengths of 1 cm.
Specific activity was calculated from the slope of the linear range of (ΔOD690 min^−1) using Beer's Law (A=εcl) with a path length of 1 cm and the molar extinction coefficient of PYO (4,130 M^−1 cm^−1). Equation was solved for c, giving specific activity in nmol min^−1 mg^−1 of PodA. For kinetic parameters, graphs of initial velocity (μM s^−1) versus substrate concentration (μM) were plotted using Prism v8 (GraphPad). The Michaelis-Menten kinetics model was used to determine Km and Vmax. The turnover number (kcat) was determined using the following equation: Vmax=kcat[E], where [E] was the concentration of PodA added. All spectrophotometric assays mentioned above were completed thrice, each in technical triplicate with a representative data set shown. Error bars represent standard deviation as calculated by Prism v8 (GraphPad). Standard deviation for kcat and Kcat KM^−1 was calculated using standard formulas for propagation of error.

[2] = Protein yield of PodA variants purified from inclusion bodies of overexpression culture; conditions: purified from inclusion bodies, per L of E. coli overexpression culture
Description: Protein overproduction and purification of soluble and inclusion body fractions. Plasmids coding for proteins of interest were transformed into E. coli BL21 […]. […]. Cultures were grown at 37° C. with shaking to an optical density of 0.4 (OD600 nm) and plasmid expression was induced with IPTG (50 μM) and shaken overnight at 16° C. Cells were harvested by centrifugation at 5,000×g for 10 min in a Beckman Coulter Avanti J-20 XOI refrigerated centrifuge using a JLA-8.1000 rotor at 4° C. Cell pellets were stored at −80° C. until used.
For purification of PodA from inclusion bodies, the pellets remaining following lysis and centrifugation at 40,000×g were resuspended in 20 mL of detergent buffer [50 mM HEPES (pH 7.5) and 1% Triton-X (v/v)] using a Bio-gen PRO200 cell homogenizer (PRO Scientific). Sample was spun for 15 min at 40,000×g at 4° C. in a Beckman Coulter Avanti centrifuge with a JA-25.50 rotor. Supernatant was discarded and the remaining cell pellet was resuspended in 5 mL of buffer [50 mM HEPES (pH 7.5), 500 mM NaCl] using a cell homogenizer, supplemented with lysozyme (200 μg mL^−1), and incubated for 10 min. Volume was increased to 20 mL with HEPES (50 mM, pH 7) and sample was spun for 40,000×g at 4° C. for 15 min. Supernatant was discarded and pellet was homogenized in 10 mL of denaturing buffer 50 mM HEPES (pH 7.5), 500 mM NaCl, and 8M urea) and incubating rocking overnight. The sample was spun at for 40,000×g at 25° C. for 30 min and supernatant was incubated with 1 mL HisPur Ni-NTA resin (Thermo Fisher Scientific) on a rocking platform for 10 min. Beads were allowed to settle without shaking, supernatant was discarded, and resin was pipetted into glass gravity columns. Resin was washed with 15 mL of denaturing buffer, followed by an elution with denaturing buffer supplemented with imidazole (500 mM). Fractions were analyzed by SDS-PAGE and those containing protein were combined into SnakeSkin 3.5 K MWCO dialysis tubing (Thermo Fisher Scientific). Urea was slowly dialyzed out in HEPES (50 mM, pH 7.5) and NaCl (500 mM) by lowing urea concentrations by 1 M increments. Each step was dialyzed at RT for 30 min. Protein was dialyzed in HEPES (50 mM, pH 7.5), NaCl (500 mM), and imidazole (20 mM) overnight at 4° C. The following day, protein was cleaved for 3 h at 25° C. with TEV protease (1:50 mg:mg ratio of TEV to PodA). The sample was applied to a HisPur gravity column and cleaved protein in the flow thru was confirmed by SDS-PAGE. Cleaved PodA protein was then dialyzed for storage for 3 h at 4° C. in HEPES (50 mM pH 7.5), NaCl (250 mM) and finally in HEPES (50 mM, pH 7.5), NaCl (100 mM), and glycerol (20%, v/v). Protein concentration was established on a NanoDrop™ using the extinction coefficient and MW of each protein. Protein was drop frozen in LN2 and stored at −80° C. until use.

[3] = Activity after boiling (kinetic stability); assay type: physicochemical; conditions: after 30 and 60 min of boiling; PodA 3 μM, PYO 100 μM
Description: FIG. 13. Activity of WT PodA30-162 and PodA10 after boiling. Protein was boiled as described in Materials and Methods, followed by an activity assay with PodA (3 μM) and PYO (100 μM) in a Spectramax M3 plate reader monitoring PYO absorbance (690 nm) overtime. Specific activity (nmol min-1 mg-1) was calculated for each sample. Replicates of PodA^WT un-boiled were averaged and set to 100% activity (dashed line). All other activities of boiled samples were compared to this value and presented as a percentage. Data represent technical triplicates and error bars represent standard deviation. A t-test was completed, with * representing a p-value<0.05 and ns representing not significant.
Due to the high thermal stability of PodA, stability assays that rely on monitoring protein unfolding over a temperature gradient were not suitable for the related testing. Therefore the enzyme's kinetic stability were analyzed by boiling WT PodA41-162 and PodA10 and measuring activity of each protein after specified boiling times. […] We also noted that several designed mutations in PodA8 and PodA10 were not prevalent in a multiple-sequence alignment of PodA homologs (FIG. 14), indicating the importance of the atomistic calculations to design success

B1: PodA10: Designed PodA41-162 variant: A53N, I73T, A87V, M99V, A129T; SEQ ID NO: 4 (protein)
chain: MVTMTLDVKNDQVNKHDFGKPGMDVGDMDIFSDTLSVDGKQVGYDGGVCFFTNVTPDNPVTYCELTIHLDAGEIFARSLTPATLAPFTMTITGGTGEYANSKGELTVSGVATPDEKYELKLTK
catalytic efficiency in growth medium compared to buffer ([1]; LB and SCFM, PodA 3 μM): No change
catalytic efficiency compared with PodA^WT ([1]; Michaelis-Menten kinetics, 3 μM protein): slight increase in efficiency
PYO demethylation activity relative to wild type ([1]; PYO 50 μM, PodA variants 3 μM): wild-type activity was maintained
Activity over range of pH ([1]; PYO 100 μM): maintained activity over a large range of pH, with no observable preference between a pH of 5-9
Activity over range of pH ([1]; PYO 100 μM, listed as PodA1041-162): maintained activity over a large range of pH, with no observable preference between a pH of 5.5 and 9
Effect of salts (NaCl and KCl) on activity ([1]; cystic fibrosis sputum range, 66 mM Na+, 15 mM K+): not altered
Effect of slight increase in viscosity (ethylene glycol or glycerol 1% v/v) on activity ([1]; pH 6, PodA 3 μM, PYO 100 μM): slight ad-vantage; also recorded: slight advantage
Yield [2]: 5.92 mg/L^−1
Activity after boiling [3]: significantly higher activity compared to WT PodA30-162
